Earlier results, collected in publication PMC3890242.

Target: Tyr57 (UniProt position 57, QIAAFYRQGLG)
Experiment: UV-vis
Conditions: unliganded D40N pKSI

Substance: Ketosteroid isomerase (pKSI) D40N (Pseudomonas putida; D40N)
- pKa: 6.3 ± 0.1
